Test [1] deals with Amyloid-β protein 1–42 monomers (Aβ42M) (human) (UniProt P05067). The test can be described thus: ELISA; indirect ELISA; Aβ42 species or HSA (2.0 μM) coated on 96-well plates at 4 °C for 12 h, blocked with 5% nonfat dry milk in TBS; BDNF 20 pg/mL added, 37 °C, 24 h; bound BDNF detected with anti-BDNF antibody; binding rate in percent of the BDNF added; also run with CA/EGCG (50 μM) or IG3/BCP (2.0 μM). (ELISA stands for enzyme-linked immunosorbent assay.)

Test [2] deals with Amyloid-β protein 1–42 protofibrils (Aβ42P) (human) (UniProt P05067). The description is as above.
Test [3] concerns the target Amyloid-β protein 1–42 fibrils (Aβ42F) (human) (UniProt P05067). The description is as above.
The target in test [4] is Amyloid-β protein 1–42 oligomers (Aβ42O) (human) (UniProt P05067). Described as above.
Test [5] has as its target Tyrosine kinase receptor B (TrkB) (not stated (human SH-SY5Y or mouse HT22 cells cultured)) (UniProt Q16620). The test can be described thus: co-IP; cells incubated 48 h with BDNF 1.0 nM, alone or with Aβ42M/Aβ42O 0.2 μM and/or CA/EGCG 100 μM or IG3/BCP 2.0 μM; native lysis; IP with anti-TrkB or anti-p75 antibody and protein A&G beads at 4 °C; Western blot with anti-BDNF antibody; band intensity in percent of the control WCL band. A general note: A western blot detects proteins with antibodies after separation by electrophoresis.

For test [6], the target named is p75 receptor (not stated (human SH-SY5Y or mouse HT22 cells cultured)) (UniProt P08138). The description is as above.
For test [7], the target named is Tyrosine kinase receptor B (TrkB) (not stated (human SH-SY5Y or mouse HT22 cells cultured)) (UniProt Q16620). Briefly: co-IP; control cells without added BDNF; native lysis; IP of 100 μL whole-cell lysate with anti-TrkB or anti-p75 antibody and protein A&G beads at 4 °C; Western blot with anti-BDNF antibody; band intensity in percent of the control WCL band.
For test [8], the target named is p75 receptor (not stated (human SH-SY5Y or mouse HT22 cells cultured)) (UniProt P08138). The test is described as above.

p75 receptor (not stated (human SH-SY5Y or mouse HT22 cells cultured)), sequence (P08138 29-427): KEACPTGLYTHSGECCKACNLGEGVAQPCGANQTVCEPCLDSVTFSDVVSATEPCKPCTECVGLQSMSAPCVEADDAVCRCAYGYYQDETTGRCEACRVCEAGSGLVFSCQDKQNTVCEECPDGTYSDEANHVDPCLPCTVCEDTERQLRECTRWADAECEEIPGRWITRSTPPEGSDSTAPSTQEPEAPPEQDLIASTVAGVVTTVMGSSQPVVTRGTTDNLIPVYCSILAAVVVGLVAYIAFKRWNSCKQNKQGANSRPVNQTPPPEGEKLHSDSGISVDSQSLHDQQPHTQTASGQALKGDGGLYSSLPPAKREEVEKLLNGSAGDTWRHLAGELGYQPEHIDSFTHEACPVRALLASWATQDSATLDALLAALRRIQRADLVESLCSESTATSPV

For the substance “Human brain-derived neurotrophic factor (BDNF) (ligand)”, the binding rate in test [1] is more than 10%. In test [2], the binding rate is less than 5%. The same substance registered a binding rate in test [3] of less than 5%. Moreover, the binding rate in test [4] is more than 10%. In test [5], this substance yielded a BDNF on Co-IP beads, percent of control WCL (BDNF added) of 85%; a BDNF on Co-IP beads, percent of control WCL (BDNF with Aβ42M and CA/EGCG) of 89.3%; a BDNF on Co-IP beads, percent of control WCL (BDNF with Aβ42M and IG3/BCP) of 92%; a BDNF on Co-IP beads, percent of control WCL (BDNF with Aβ42M) of 88.3%. Besides, in test [5], the BDNF on Co-IP beads, percent of control WCL (BDNF with Aβ42O and CA/EGCG) was determined as 72.2%; the BDNF on Co-IP beads, percent of control WCL (BDNF with Aβ42O and IG3/BCP) worked out at 73.4%; the BDNF on Co-IP beads, percent of control WCL (BDNF with Aβ42O) came out at 58.1%. For the same substance, in test [6], the BDNF on Co-IP beads, percent of control WCL (BDNF added) was determined as 70%; the BDNF on Co-IP beads, percent of control WCL (BDNF with Aβ42M and CA/EGCG) stood at 73.4%; the BDNF on Co-IP beads, percent of control WCL (BDNF with Aβ42M and IG3/BCP) came out at 83.2%; the BDNF on Co-IP beads, percent of control WCL (BDNF with Aβ42M) turned out to be 71.9%. For the same substance, in test [6], the BDNF on Co-IP beads, percent of control WCL (BDNF with Aβ42O and CA/EGCG) is 62.1%; the BDNF on Co-IP beads, percent of control WCL (BDNF with Aβ42O and IG3/BCP) was 61.7%; the BDNF on Co-IP beads, percent of control WCL (BDNF with Aβ42O) came out at 64.3%.

Turning to “Endogenous BDNF of the control cells (ligand)”, the BDNF on Co-IP beads, percent of control WCL (no BDNF added) was 44.1% in test [7] and 31.9% in test [8].

(Values after paper PMC12111036.)
